These results are taken from patent US20180022794A1.

This assay addresses endogenous active RhoA (RhoA-GTP) of HeLa S3 cells (UniProt P61586). As to the kind of experiment: cell-based or functional assay.

endogenous active RhoA (RhoA-GTP) of HeLa S3 cells, sequence (P61586 1-190 limits assumed): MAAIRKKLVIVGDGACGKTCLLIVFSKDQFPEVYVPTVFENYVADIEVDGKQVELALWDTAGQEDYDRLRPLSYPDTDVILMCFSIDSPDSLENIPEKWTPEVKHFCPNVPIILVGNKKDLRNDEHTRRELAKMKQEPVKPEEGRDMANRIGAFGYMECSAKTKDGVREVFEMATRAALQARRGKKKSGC

B1: F-H12 (VHH, part only; not given: Fbox domain and myc tag, not shown: small tags and cut ends)
chain, part: VQLQASGGGFVQPGGSLRLSCAASGDGSRIYAMGWFRQAPGKEREFVSAISWEQDWEHYYADSVKGRFTISRDNSKNTVYLQMNSLRAEDTATYYCAAFMTPHRNLTSMYWGQGTQVTVSS
Turning to B1, the RhoA-GTP level after 15 min of EGF treatment (GST-RBD pull down) turned out to be 50%.
